In assay [1] the target is N-terminal 6X-His tagged TfAcCCB (carboxyltransferase subunit of Thermobifida fusca YX acyl-CoA carboxylase) (Thermobifida fusca YX). The experiment in a line: SEC; Ni-NTA purified His-tagged TfAcCCB-TfAcCCE subcomplex or His-tagged TfAcCCA; Superdex 200 10/300 GL; 100 mM potassium phosphate pH 7.6, 0.75 mM DTT, 1 mM EDTA, 20% glycerol; apparent molecular weights against standards (Figure 2C, 2D). A general note: Size exclusion chromatography separates by hydrodynamic size, large species first.

Assay [2] has the same target. Put plainly: SEC; Ni-NTA purified holoenzyme from co-expression of all three subunits (wild-type or D427I TfAcCCB); Superdex 200 10/300 GL; 100 mM potassium phosphate pH 7.6, 0.75 mM DTT, 1 mM EDTA, 20% glycerol; apparent molecular weights against standards; peaks analysed by SDS-PAGE (Figure 2A, 2B).
Assay [3] has the same target. The experiment in a line: pull-down; subunits co-expressed in E. coli; Ni-NTA affinity chromatography via the His-tag on TfAcCCB; SDS-PAGE with Coomassie staining and densitometry, or Western blot with anti-S-tag antibody (Figure 1A, 1B). In general terms: A western blot detects proteins with antibodies after separation by electrophoresis.
Assay [4] has as its target TfAcCCA (biotin carboxylase / biotin carboxyl carrier subunit of Thermobifida fusca YX acyl-CoA carboxylase), without tag (Thermobifida fusca YX). Put plainly: SEC; Ni-NTA purified holoenzyme from co-expression of all three subunits (wild-type or D427I TfAcCCB); Superdex 200 10/300 GL; 100 mM potassium phosphate pH 7.6, 0.75 mM DTT, 1 mM EDTA, 20% glycerol; apparent molecular weights against standards; peaks analysed by SDS-PAGE (Figure 2A, 2B).

Assay [5] has as its target N-terminal 6X-His tagged TfAcCCB (carboxyltransferase subunit of Thermobifida fusca YX acyl-CoA carboxylase) (Thermobifida fusca YX).

“And” between values parts separate entries of the source, which are not always exact repeats. Identical values can stand only once.

One may read the stoichiometry N as the number of molecules, sites or subunits per partner or assembly.

As to “N-terminal 6X-His tagged TfAcCCB (carboxyltransferase subunit of Thermobifida fusca YX acyl-CoA carboxylase) (enzyme)”, the stoichiometry N in assay [1] was 6 and 12 and 18; in assay [2], 6 and 9 and 3.
In the case of “TfAcCCA (biotin carboxylase / biotin carboxyl carrier subunit of Thermobifida fusca YX acyl-CoA carboxylase), without tag (enzyme)”, the stoichiometry N in assay [3] is 1 molar ratio; in assay [4], 3 and 6 and 9.
“TfAcCCE (non-catalytic subunit of Thermobifida fusca YX acyl-CoA carboxylase), without tag (natural protein)” displayed a specificity constant (Vmax/Km) of acyl-CoA carboxylation by purified TfAcCCB, made with or without co-expressed TfAcCCE, mixed in vitro with purified TfAcCCA (acetyl-, propionyl- and butyryl-CoA) in assay [5] of 20 fold. Also, the stoichiometry N in assay [3] worked out at 1 molar ratio.

Source of the values: PMC7835884.
